Laboratory results from the supplement of paper PMC7877785.
± gives the uncertainty stated by the source.

Assay: self-splicing fitness, log relative to wild type (ln ratio); higher = more splicing; Tetrahymena group I intron in knt gene, E. coli kanamycin selection, DiMSum; sequences stand for … in CUCUCU…GGAGGGAAAAGUUAUCAGGCAUGCACCUGGUAGCUAGUCUUUAAACCAAUAGAUUGCAUCGGUUUAAAAGGCAAGACCGUCAAAUUGCGGGAAAGGGGUCAACAGCCGUUCAGUACCAAGUCUCAGGGGAAACUUUGAGAUGGCCUUGCAAAGGGUAUGGUAAUAAGCUGACGGACAUGGUCCUAACCACGCAGCCAAGUCCUAAGUCAACAGAUCUUCUGUUGAUAUGGAUGCAGUUCACAGACUAAAUGUCGGUCGGGGAAGAUGUAUUCUUCUCAUAAGAUAUAGUCGGACCUCUCCUUAAUGGGAGCUAGCGGAUGAAGUGAUGCAACACUGGAGCCGCUGGGAACUAAUUUGUAUGCGAAAGUAUAUUGAUUAGUUUUGGAGUACUCGUGGUCG
How it was run: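 The eight P1ex-region nucleotides of an intron in the knt kanamycin-resistance gene on pET-22b(+) were all randomised and the library put into E. coli BL21(DE3). Six replicate transformations were grown overnight at 37°C or 30°C on LB agar with or without 25 μg/mL kanamycin, together with 100 μg/mL carbenicillin, 50 μM IPTG and 0.2% rhamnose. Colonies were pooled and amplicon-sequenced on an Illumina HiSeq 2500. Fitness from DiMSum is the error-weighted combination of wild-type-normalised replicate fold changes, kanamycin over none.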

Sequence	self-splicing fitness (ln) (30 °C)	self-splicing fitness (ln) (37 °C)
CAAGAGCAAUAUUACGACAU	-3.534 ± 0.024	-2.85 ± 0.041
CAAGAGCAAUAUUACGACGU	-2.88 ± 0.23	
CAAGAGCAAUAUUACGAUAC	-2.8 ± 0.34	
CAAGAGCAAUAUUACGAUUU	-3.11 ± 0.2	-2.45 ± 0.16
CAAGAGCAAUAUUACGCAGA	-3.45 ± 0.19	-2.12 ± 0.16
CAAGAGCAAUAUUACGCGCA	-3.48 ± 0.37	-2.09 ± 0.25
CAAGAGCAAUAUUACGGCAC	-4.28 ± 0.24	-2.53 ± 0.18
CAAGAGCAAUAUUACGGCGA	-3.9 ± 0.28	-3.24 ± 0.18
CAAGAGCAAUAUUACGGCUG	-0.309 ± 0.098	-0.473 ± 0.16
CAAGAGCAAUAUUACGGGUG	-1.74 ± 0.078	-1.17 ± 0.1
CAAGAGCAAUAUUACGGUAA	-3.24 ± 0.23	-2.14 ± 0.21
CAAGAGCAAUAUUACGGUAU	-4.27 ± 0.22	-2.63 ± 0.21
CAAGAGCAAUAUUACGGUGC	-3.03 ± 0.31	-2.09 ± 0.35
CAAGAGCAAUAUUACGGUUC	-3.57 ± 0.24	-2.34 ± 0.25
CAAGAGCAAUAUUACGUAAA	-4.16 ± 0.29	-3.01 ± 0.26
CAAGAGCAAUAUUACGUCAC	-3.05 ± 0.21	-2.75 ± 0.23

Sequence	self-splicing fitness (ln) (30 °C)	self-splicing fitness (ln) (37 °C)
CAAGAGCAAUAUUACGUCGA	-3.3 ± 0.21	-2.2 ± 0.24
CAAGAGCAAUAUUACGUGAC		-3.01 ± 0.18
CAAGAGCAAUAUUACGUGCA	-2.97 ± 0.21	-3.06 ± 0.43
CAAGAGCAAUAUUACGUUAA	-3.49 ± 0.35	-2.33 ± 0.22
CAAGAGCAAUAUUACGUUGG	-2.67 ± 0.13	-1.78 ± 0.12
CAAUAGCAAUAUUACGAAGU	-3.76 ± 0.15	-2.64 ± 0.15
CAAUAGCAAUAUUACGAGCA	-2.05 ± 0.34	-0.415 ± 0.3
CAAUAGCAAUAUUACGAGCG	-0.254 ± 0.077	0.281 ± 0.098
CAAUAGCAAUAUUACGAGUC	-4.09 ± 0.34	-2.75 ± 0.28
CAAUAGCAAUAUUACGCAAC	-3.75 ± 0.34	-1.91 ± 0.39
CAAUAGCAAUAUUACGCAAU	-3.23 ± 0.34	-2.09 ± 0.28
CAAUAGCAAUAUUACGCCCG	-0.472 ± 0.17	-0.0129 ± 0.23
CAAUAGCAAUAUUACGCGCA	-2.68 ± 0.19	-1.7 ± 0.18
CAAUAGCAAUAUUACGCGCU	-3.61 ± 0.18	-2.18 ± 0.18
CAAUAGCAAUAUUACGCGGC	-3.91 ± 0.37	
CAAUAGCAAUAUUACGCGUA	-2.09 ± 0.18	-1.85 ± 0.23
